As a reminder, the stoichiometry N is the number of molecules, sites or subunits per partner or assembly.

Consider two molecules from article PMC6013222, “SNPs in inflammatory genes CCL11, CCL4 and MEFV in a fibromyalgia family study” (PLoS ONE, 2018).

The target of data set [1] is T1, Recombinant human CCL4 (MIP-1β), wild type (human), P13236.
T1 chain: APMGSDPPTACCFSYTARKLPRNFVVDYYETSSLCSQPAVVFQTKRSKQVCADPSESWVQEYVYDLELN
As to the kind of experiment: SEC; Superdex 200 10/30 column, 0.5 mL/min in PBS, UV detection at 214 and 280 nm. The note with it: remark: other sources report otherwise.

Data set [2] concerns the molecule itself. The description is as above.

B1: Recombinant human CCL4 (MIP-1β), wild type, P13236 24-92 (ligand)
chain: APMGSDPPTACCFSYTARKLPRNFVVDYYETSSLCSQPAVVFQTKRSKQVCADPSESWVQEYVYDLELN
As for B1, the stoichiometry N in data set [1] amounted to 2.

B2: Recombinant human CCL4 variant (S80T) (ligand, UniProt P13236 24-92, looked up)
chain: APMGSDPPTACCFSYTARKLPRNFVVDYYETSSLCSQPAVVFQTKRSKQVCADPSETWVQEYVYDLELN
notes: C-C motif chemokine 4 (CCL4, MIP-1β), human, natural variant Ser80Thr from SNP rs1719152, recombinant; On SEC two broad peaks: a high molecular weight aggregate (>300 kDa) and a 16 kDa dimer; also called varCCL4; variant CCL4; source: bought: Kingfisher Biotech, Inc
In the case of B2, the “stoichiometry N” value in data set [2] stood at 2.
